Results: publication PMC8551270 (Scientific Reports, 2021)
Entries after “also recorded” stand apart in the source; their conditions may differ.

What was measured:
[1] = plasma samples from minipigs dosed i.v., pooled from two minipigs for each time point; details: Göttingen Minipigs, up to 288 h post dosing
[2] = target: PYY3-36 analogue 56: [Lys4(TAMRA), Lys30(C18 diacid-gammaGlu-2xAdo)]PYY3-36 L30K (acylated) (UniProt P10082); test: fluorescence polarization (TAMRA-labelled peptide; excitation 535/25 nm, emission 595/35 nm; Tecan Spark, 384-well plate); details: room temperature, 140 mM NaCl at pH 7.4, 150 mM NaCl at pH 6.0, 10 mM sodium phosphate at pH 7.4, 20 mM MES at pH 6.0
PYY3-36 analogue 56: [Lys4(TAMRA), Lys30(C18 diacid-gammaGlu-2xAdo)]PYY3-36 L30K (acylated), sequence (P10082 whole entry, stated change not applied): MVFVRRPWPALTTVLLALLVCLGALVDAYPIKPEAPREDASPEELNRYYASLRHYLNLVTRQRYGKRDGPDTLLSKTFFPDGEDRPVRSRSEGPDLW

[3] = target: PYY3-36 analogue 58: [Lys4(TAMRA), Lys30(C14 diacid-gammaGlu-2xAdo)]PYY3-36 L30K (acylated) (UniProt P10082); test: as above; details: room temperature, 140 mM NaCl at pH 7.4, 150 mM NaCl at pH 6.0, 10 mM sodium phosphate at pH 7.4, 20 mM MES at pH 6.0
PYY3-36 analogue 58: [Lys4(TAMRA), Lys30(C14 diacid-gammaGlu-2xAdo)]PYY3-36 L30K (acylated), sequence (P10082 whole entry, stated change not applied): as above

[4] = target: PYY3-36 analogue 59: [Lys4(TAMRA), Lys30(C16 diacid-gammaGlu-2xAdo)]PYY3-36 L30K (acylated) (UniProt P10082); test: as above; details: room temperature, 140 mM NaCl at pH 7.4, 150 mM NaCl at pH 6.0, 10 mM sodium phosphate at pH 7.4, 20 mM MES at pH 6.0
PYY3-36 analogue 59: [Lys4(TAMRA), Lys30(C16 diacid-gammaGlu-2xAdo)]PYY3-36 L30K (acylated), sequence (P10082 whole entry, stated change not applied): as above

[5] = target: PYY3-36 analogue 60: [Lys4(TAMRA), Lys30(C20 diacid-gammaGlu-2xAdo)]PYY3-36 L30K (acylated) (UniProt P10082); test: as above; details: room temperature, 140 mM NaCl at pH 7.4, 150 mM NaCl at pH 6.0, 10 mM sodium phosphate at pH 7.4, 20 mM MES at pH 6.0
PYY3-36 analogue 60: [Lys4(TAMRA), Lys30(C20 diacid-gammaGlu-2xAdo)]PYY3-36 L30K (acylated), sequence (P10082 whole entry, stated change not applied): as above

[6] = cited from earlier work

Kd ([2]; pH 6.0) | Kd ([2]; pH 7.4) | Kd ([3]; pH 6.0) | Kd ([3]; pH 7.4) | Kd ([4]; pH 6.0) | Kd ([4]; pH 7.4) | Kd ([5]; pH 6.0) | Kd ([5]; pH 7.4) | Substance | fragment found [1] | other results
– | – | – | – | – | – | – | – | [(C18diacid-γGlu-2xAdo)]PYY3-36 | PYY3-34; also recorded: PYY3-35 | –
– | – | – | – | – | – | – | – | [C20diacid-Trx-γGlu-2xAdo]PYY3-36 | [C20diacid-Trx-LgGly-2xAdo]PYY3-34, major | –
– | – | – | – | – | – | – | – | [K^ε30(C18diacid-γGlu-2xAdo)]PYY3-36 | PYY4-36, minor; also recorded: PYY6-36, minor | –
0.93 µM | 0.58 µM | 23 µM | 44 µM | 4.7 µM | 4.2 µM | 0.35 µM | 0.098 µM | human serum albumin (HSA), fatty-acid free | – | –
0.89 µM | 0.6 µM | 34 µM | 48 µM | 5.3 µM | 4.5 µM | 0.46 µM | 0.27 µM | porcine serum albumin (PSA), charcoal-defatted | – | –
– | – | – | – | – | – | – | – | semaglutide | – | half-life in the minipig model [6]: approximately 46 hours
